According to the supplement of paper PMC10567573:

B1: FUNDC2 (parent)
chain: YIKVDWQRVEKDMKKAKEQLKIRK

Variants of: B1
Assay: protein stability index of a GFP-peptide fusion (GPS, HEK-293T) (PSI 1-6); higher = more stable
Settings: c terminus: a fixed tail appended
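Note: lentivirally expressed fusions sorted by FACS into six bins by GFP to DsRed ratio, PSI derived from sequencing read proportions per bin multiplied by bin number.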

| Variant | protein stability index |
| --- | --- |
| YTKVDWQRVEKDMKKAKEQLKIRK [I2T] | 2.37 |
| YYKVDWQRVEKDMKKAKEQLKIRK [I2Y] | 3 |
| YWKVDWQRVEKDMKKAKEQLKIRK [I2W] | 2.96 |
| YLKVDWQRVEKDMKKAKEQLKIRK [I2L] | 2.26 |
| YAKVDWQRVEKDMKKAKEQLKIRK [I2A] | 3.35 |
| YGKVDWQRVEKDMKKAKEQLKIRK [I2G] | 3.6 |
| YCKVDWQRVEKDMKKAKEQLKIRK [I2C] | 1.93 |
| YVKVDWQRVEKDMKKAKEQLKIRK [I2V] | 1.83 |
| YNKVDWQRVEKDMKKAKEQLKIRK [I2N] | 3.6 |
| YIKVDWQRHEKDMKKAKEQLKIRK [V9H] | 1.61 |
| YIKVDWQRFEKDMKKAKEQLKIRK [V9F] | 1.54 |
| YIKVDWQRDEKDMKKAKEQLKIRK [V9D] | 2.62 |
| YIKVDWQRSEKDMKKAKEQLKIRK [V9S] | 1.91 |
| YIKVDWQRGEKDMKKAKEQLKIRK [V9G] | 1.95 |
| YIKVDWQRQEKDMKKAKEQLKIRK [V9Q] | 2.16 |
| YIKVDWQRAEKDMKKAKEQLKIRK [V9A] | 1.5 |
| YIKVDWQRVEKDMHKAKEQLKIRK [K14H] | 1.14 |
| YIKVDWQRVEKDMCKAKEQLKIRK [K14C] | 1.83 |
| YIKVDWQRVEKDMPKAKEQLKIRK [K14P] | 1.86 |
| YIKVDWQRVEKDMTKAKEQLKIRK [K14T] | 1.92 |
| YIKVDWQRVEKDMIKAKEQLKIRK [K14I] | 1.67 |
| YIKVDWQRVEKDMVKAKEQLKIRK [K14V] | 1.92 |
| YIKVDWQRVEKDMWKAKEQLKIRK [K14W] | 2.1 |
| YIKVDWQRVEKDMMKAKEQLKIRK [K14M] | 1.9 |

| Variant | protein stability index |
| --- | --- |
| YIKVDWQRVEKDMKKAKEQLKIEK [R23E] | 1.76 |
| YIKVDWQRVEKDMKKAKEQLKIAK [R23A] | 2.08 |
| YIKVDWQRVEKDMKKAKEQLKIWK [R23W] | 1.59 |
| YIKVDWQRVEKDMKKAKEQLKIIK [R23I] | 2.79 |
| YIKVDWQRVEKDMKKAKEQLKIRP [K24P] | 1.6 |
| YIKVDWQRVEKDMKKAKEQLKIRG [K24G] | 1.85 |
| YIKVDWQRVEKDMKKAKEQLKIRR [K24R] | 1.12 |
| YIKVDWQRVEKDMKKAKEQLKIRW [K24W] | 1.69 |
| YIKVDWQRVEKDMKKAKEQLKIRF [K24F] | 1.52 |
| YIKVDWQRVEKDMKKAKEQLKIRH [K24H] | 2.12 |
| EIKVDWQRVEKDMKKAKEQLKIRK [Y1E] | 4.15 |
| FIKVDWQRVEKDMKKAKEQLKIRK [Y1F] | 1.85 |
| NIKVDWQRVEKDMKKAKEQLKIRK [Y1N] | 3.7 |
| SIKVDWQRVEKDMKKAKEQLKIRK [Y1S] | 3.11 |
| PIKVDWQRVEKDMKKAKEQLKIRK [Y1P] | 3.81 |
| GIKVDWQRVEKDMKKAKEQLKIRK [Y1G] | 4.26 |
| TIKVDWQRVEKDMKKAKEQLKIRK [Y1T] | 3.07 |
| IIKVDWQRVEKDMKKAKEQLKIRK [Y1I] | 2.21 |
| LIKVDWQRVEKDMKKAKEQLKIRK [Y1L] | 3.22 |
| QIKVDWQRVEKDMKKAKEQLKIRK [Y1Q] | 3.49 |
| YIKVDWQRVEKDMKCAKEQLKIRK [K15C] | 2.35 |
| YIKVDWQRVEKDMKNAKEQLKIRK [K15N] | 1.88 |
| YIKVDWQRVEKDMKSAKEQLKIRK [K15S] | 1.65 |
| YIKVDWQRVEKDMKFAKEQLKIRK [K15F] | 1.42 |

| Variant | protein stability index |
| --- | --- |
| YIKVDWQRVEKDMKMAKEQLKIRK [K15M] | 1.79 |
| YIKVDWQRVEKDMKAAKEQLKIRK [K15A] | 1.78 |
| YIKVDWQRVEKDMKLAKEQLKIRK [K15L] | 2.19 |
| YIKVDWQRVEKDMKTAKEQLKIRK [K15T] | 2.11 |
| YIKVDWQRVEKDMKHAKEQLKIRK [K15H] | 1.44 |
| YIKVDWQRVEKDMKQAKEQLKIRK [K15Q] | 2.5 |
| YIKVDWQTVEKDMKKAKEQLKIRK [R8T] | 2.21 |
| YIKVDWQMVEKDMKKAKEQLKIRK [R8M] | 2.35 |
| YIKVDWQLVEKDMKKAKEQLKIRK [R8L] | 2.21 |
| YIKVDWQCVEKDMKKAKEQLKIRK [R8C] | 1.04 |
| YIKVDWQSVEKDMKKAKEQLKIRK [R8S] | 1.96 |
| YIKVDWQGVEKDMKKAKEQLKIRK [R8G] | 1.71 |
| YIKVDWQHVEKDMKKAKEQLKIRK [R8H] | 2.11 |
| YIKVDWQYVEKDMKKAKEQLKIRK [R8Y] | 1.62 |
| YIKVDWQFVEKDMKKAKEQLKIRK [R8F] | 1.99 |
| YIEVDWQRVEKDMKKAKEQLKIRK [K3E] | 2.4 |
| YIWVDWQRVEKDMKKAKEQLKIRK [K3W] | 2.09 |
| YIDVDWQRVEKDMKKAKEQLKIRK [K3D] | 4.58 |
| YIAVDWQRVEKDMKKAKEQLKIRK [K3A] | 2.13 |
| YIHVDWQRVEKDMKKAKEQLKIRK [K3H] | 1.39 |
| YISVDWQRVEKDMKKAKEQLKIRK [K3S] | 1.88 |
| YIKVDSQRVEKDMKKAKEQLKIRK [W6S] | 3.31 |
| YIKVDMQRVEKDMKKAKEQLKIRK [W6M] | 2.46 |
| YIKVDYQRVEKDMKKAKEQLKIRK [W6Y] | 2.24 |

| Variant | protein stability index |
| --- | --- |
| YIKVDTQRVEKDMKKAKEQLKIRK [W6T] | 2.97 |
| YIKVDLQRVEKDMKKAKEQLKIRK [W6L] | 2.28 |
| YIKVDIQRVEKDMKKAKEQLKIRK [W6I] | 2.47 |
| YIKVDCQRVEKDMKKAKEQLKIRK [W6C] | 2.64 |
| YIKVDFQRVEKDMKKAKEQLKIRK [W6F] | 2.63 |
| YIKVDHQRVEKDMKKAKEQLKIRK [W6H] | 2.83 |
| YIKVDPQRVEKDMKKAKEQLKIRK [W6P] | 3.15 |
| YIKVDVQRVEKDMKKAKEQLKIRK [W6V] | 3.49 |
| YIKVDWQRVEKDMKKANEQLKIRK [K17N] | 1.95 |
| YIKVDWQRVEKDMKKATEQLKIRK [K17T] | 1.62 |
| YIKVDWQRVEKDMKKAYEQLKIRK [K17Y] | 2.37 |
| YIKVDWQRVEKDMKKAGEQLKIRK [K17G] | 2.69 |
| YIKVDWQRVEKDMKKAIEQLKIRK [K17I] | 1.71 |
| YIKVDWQRVEKDMKKAPEQLKIRK [K17P] | 1.79 |
| YIKVDWQRVEKDMKKAFEQLKIRK [K17F] | 2.62 |
| YIKVDWQRVEKDMKKAMEQLKIRK [K17M] | 2.83 |
| YIKVDWQRVEKDMKKAHEQLKIRK [K17H] | 1.94 |
| YIKVDWQRVEKDMKKAREQLKIRK [K17R] | 2.27 |
| YIKVDWQRVEKYMKKAKEQLKIRK [D12Y] | 3.43 |
| YIKVDWQRVEKLMKKAKEQLKIRK [D12L] | 2.8 |
| YIKVDWQRVEKGMKKAKEQLKIRK [D12G] | 2.68 |
| YIKVDWQRVEKNMKKAKEQLKIRK [D12N] | 1.47 |
